The source of these data is US20180265573A1 (ICAHN SCHOOL OF MEDICINE AT MOUNT SINAI, published 2018).

The target in assay [1] is baculovirus-expressed hemagglutinin of influenza virus A/Solomon Islands/06 (H1) (influenza A virus A/Solomon Islands/06 …).
The target of assay [2] is baculovirus-expressed hemagglutinin of influenza virus A/California/04/09 (H1) (influenza A virus A/California/04/09 …).
For assay [3], the target named is hemagglutinin of influenza A virus A/Puerto Rico/8/34 (influenza A virus A/Puerto Rico/8/34, UniProt P03452 18-565). Kind of assay: cell-based or functional assay.
Assay [4] addresses T1, hemagglutinin of influenza A virus A/Hong Kong/1/68 (H3) (influenza A virus A/Hong Kong/1/68 (H3), UniProt Q91MA7 17-566).
T1 construct: whole, on cells; also called HK68 (H3)
Put plainly: immunofluorescence on infected, fixed MDCK cells.

B1: monoclonal antibody GG3 (antibody, V domains shown)
VH: QIQLVQSGPELKKPGETVKISCKASGYTFTNYGMNWVKQAPGKGLKWMGWINIYSGESTYVDDFTGRFAFSLETSASTAYLQINNLKNEDMATYFCARSGDTMITAGRSFFAMDYWGQGTSVTVSS
VL: DIQMTQSPSSLSASLGERVSLTCRASQEISGYLSWLQQKPDGTIKRLIYAASTLDSGVPKRFSGSRSGSDYSLSISSLESEDFADYYCLQYANYPWSFGGGTKLEIK
notes: also called mAb GG3; Mab GG3
In general, EC50 (read off the curve) refers to the midpoint of the concentration-response curve. The low end stands for greater potency, the high end for weaker potency. Turning to B1, the figures for the “EC50 (read off the curve)” value in assay [1] and in assay [2] were about 0.007 µg/mL and about 0.01 µg/mL, respectively. Also, in assay [3], the “IC50 (read off the curve), plaque reduction neutralization assay” value is about 1 µg/mL. Also, the binding result in assay [4] is listed as “no binding (tested: 5 µg/mL)”.
